These results are taken from US20130323248A1.

Assay [1] has as its target Recombinant Human DLL4 (human) (UniProt Q9NR61). As to the kind of experiment: Biacore SPR. On the technique in general: Surface plasmon resonance follows binding to a sensor surface in real time, without labels.
The target in assay [2] is human DLL-4 expressed on the surface of CHO-K1 cells (CHO-DLL-4 cells) (human) (UniProt Q9NR61). Kind of assay: flow cytometry (HTFC) on CHO-K1 cells stably expressing DLL-4.
Assay [3] has the same target. Kind of assay: flow cytometry competition; 20 ug/ml FITC-rhNotch-1 on CHO-DLL-4 cells, increasing antibody concentrations. On the technique in general: A flow cytometer gives signals particle by particle.

Turning to 21M18, in assay [1], the Ka was 5.86e+08 M⁻¹ and the Kd (in general, a measure of binding affinity in units of concentration) is 1.71 nM.

Consider anti-DLL-4 antibody OMP21M18 (Oncomed), for which, in assay [2], the EC50 (in general, the concentration at which the effect is half-maximal) was 1.7 nM. The IC50 (usually the concentration that inhibits the measured activity by half) in assay [3] is 1.72 nM.
